# B1: GzmA-WT: recombinant wild-type human Granzyme A, homodimeric serine protease, purified from HEK293T supernatants (protein)
# chain: IIGGNEVTPHSRPYMVLLSLDRKTICAGALIAKDWVLTAAHCNLNKRSQVILGAHSITREEPTKQIMLVKKEFPYPCYDPATREGDLKLLQLMEKAKINKYVTILHLPKKGDDVKPGTMCQVAGWGRTHNSASWSDTLREVNITIIDRKVCNDRNHYNFNPVIGMNMVCAGSLRGGRDSCNGDSGSPLLCEGVFRGVTSFGLENKCGDPRGPGVYILLSKKHLNWIIMTIKGAV
# modifications: left off: small tags and cut ends
# notes: recombinant wild-type human Granzyme A, homodimeric serine protease, purified from HEK293T supernatants
# Experiments:
# [1] = system: BCG-GFP in human monocytes; assay: BCG-GFP protection experiments and kinetics by flow cytometry
# Description: Following treatment with GzmA and infection with mycobacteria, monocytes were first blocked with True Stain Fc blocker (Cat. #426101, Biolegend, San Diego, CA), and then permeabilized using permeabilization solution (Cat. #554715, BD Biosciences, San Diego, CA). Next, cells were incubated with anti-GzmA antibody conjugated with PE (Cat. #558904, BD Biosciences, San Diego, CA). A flow cytometer was then used to analyze BCG-GFP and GzmA-PE positive cells. FlowJo software was used for analysis.
# [2] = system: Connaught BCG within primary CD14+ human monocytes; assay type: cell-based
# [3] = target: T1, PDIA1 (Homo sapiens, UniProt P07237); assay: Incubation of GzmA-WT with recombinant PDIA1 (silver stain, anti-GzmA WB); assay type: biochemical; parameters: The cDNA of human PDIA1 (residues 18-479) was cloned into a pET-23 vector expression system; His-tag (N); made in house; host or cells: E. coli BL21(DE3); details: fresh PDIA1; not present with heat-inactivated PDIA1
# Description: Expression and purification of human recombinant PDIA1. The cDNA of human PDIA1 (residues 18-479) was cloned into a pET-23 vector expression system. An N-terminal His-tag was engineered to facilitate purification. Sequence verified plasmids were transfected into BL21(DE3) cells. Cells were grown in LB medium until an OD600 of ˜0.6. Protein expression was induced with 0.5 mM IPTG. After overnight incubation at 37° C., cells were harvested by centrifugation. Soluble PDI protein was extracted by treating the cells with a nonionic detergent (B-PER, Thermo) followed by purification by affinity chromatography using a TALON resin as described before (Chinnaraj et al., 2021). Briefly, fractions eluted at 200 mM imidazole were pooled, dialyzed overnight in Tris 20 mM pH 7.4 145 mM NaCl to remove imidazole, and then loaded into size exclusion chromatography column 5200 10/300 (Cytiva) to isolate monomeric protein. Final protein concentrations were determined by measuring the absorbance at 280 nm, and using molar extinction coefficient of PDIA1 (i.e., 45755 M-lcm-1). Chemical identity was verified by mass spectrometry. Purify was >98%, as judged by SDS-PAGE.
# Target sequence in this assay (P07237 18-479): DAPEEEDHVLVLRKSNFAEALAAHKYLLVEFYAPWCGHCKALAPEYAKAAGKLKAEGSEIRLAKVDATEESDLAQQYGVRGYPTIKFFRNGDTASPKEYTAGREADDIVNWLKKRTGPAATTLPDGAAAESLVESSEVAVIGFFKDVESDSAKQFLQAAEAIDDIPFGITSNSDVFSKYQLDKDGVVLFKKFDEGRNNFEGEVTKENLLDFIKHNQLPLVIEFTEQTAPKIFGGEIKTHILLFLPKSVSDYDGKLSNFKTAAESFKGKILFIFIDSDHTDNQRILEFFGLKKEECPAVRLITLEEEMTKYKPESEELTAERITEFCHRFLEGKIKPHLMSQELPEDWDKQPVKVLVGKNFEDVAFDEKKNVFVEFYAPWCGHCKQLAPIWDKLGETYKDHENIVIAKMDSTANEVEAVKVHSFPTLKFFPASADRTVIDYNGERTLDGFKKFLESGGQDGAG
# [4] = target: T1, PDIA1; assay: STED microscopy colocalization of GzmA with PDIA1; assay type: cell-based; parameters: endogenous in cells; host or cells: primary human monocytes infected with mycobacteria; details: STED images, infected and treated human monocytes
# Description: Confocal microscopy and Stimulation Emission Depletion (STED) experiments. For confocal and STED microscopy experiments, cells were incubated on coverslips pre-treated with Cell-Tak (Corning #354240). At the time of fixation, cells were washed twice with 1×RT PBS, and then fixed in 4% paraformaldehyde for 15 min at 37° C. Slides were washed thrice for 5 min at RT with 1×PBS, and then blocked with 5% donkey serum (Cat. #017-000-121, Jackson ImmunoResearch, West Grove, PA) with 0.25% Tween-20 (Cat. #P9416, Sigma, St. Louis, MO) and True Stain Fc blocker (added only during blocking step) (Cat. #426101, Biolegend, San Diego, CA). Cells were then incubated overnight at 4° C. with primary antibody anti-GzmA (Cat. #MAB29051, R&D, Minneapolis, MN) at 12.5 μg/mL in blocking buffer, anti-PDIA1 (Cat. #MAB4236, R&D, Minneapolis, MN) at 12.5 μg/mL in blocking buffer, anti-LAMP1 at 12.5 ug/ml (Cat. #MAB4800, R&D, Minneapolis, MN), or anti-ATPSH (Cat. #ab110275, Abcam, Cambridge, UK) at 5 μg/mL in blocking buffer. To remove unbound antibody, cells were washed four times with 1×PBS at RT, and then incubated in the dark for 2 h with secondary antibody conjugated with Alexa Fluor 594 (Cat. #715-545-150, Jackson Immunoresearch, West Grove, PA) at 1:100 or Atto 647N (Cat. #ASR3248, Abcepta, San Diego, Ca) at 1:100. […]
# Target sequence in this assay (P07237 18-508): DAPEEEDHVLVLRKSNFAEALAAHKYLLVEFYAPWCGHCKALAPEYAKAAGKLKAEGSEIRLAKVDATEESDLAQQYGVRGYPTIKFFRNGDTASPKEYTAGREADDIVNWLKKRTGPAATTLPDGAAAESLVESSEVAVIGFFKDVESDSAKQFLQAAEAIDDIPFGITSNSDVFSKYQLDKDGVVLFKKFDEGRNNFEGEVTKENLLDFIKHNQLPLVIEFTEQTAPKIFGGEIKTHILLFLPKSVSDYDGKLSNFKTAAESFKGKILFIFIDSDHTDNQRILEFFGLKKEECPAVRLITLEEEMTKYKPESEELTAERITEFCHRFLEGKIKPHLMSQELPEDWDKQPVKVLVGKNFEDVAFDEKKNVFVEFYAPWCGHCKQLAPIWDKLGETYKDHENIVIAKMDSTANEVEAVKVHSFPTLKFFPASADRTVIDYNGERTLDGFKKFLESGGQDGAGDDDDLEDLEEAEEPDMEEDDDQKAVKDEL
# [5] = system: mycobacteria within iMac TLR4KO cells; assay: MGIA in iMac TLR4KO cells; assay type: cell-based, mouse
# [6] = thawed aliquots tested up to a week after thawing
# [7] = system: Mtb H37Rv within primary CD14+ human monocytes; assay type: cell-based, Mycobacterium tuberculosis
# [8] = system: mycobacteria BCG-GFP; assay type: binding
molecule,measurement,setting,value
B1,uptake and persistence of bacteria in treated cells with detectable GzmA,[1]; GzmA detected in treated monocytes,least uptake and persistence of bacteria
same,mycobacterial growth in treated cells without sufficient internalization of protein (GzmA-),"[1]; GzmA- cells, over 18 h",reduced mycobacterial growth over time
same,reduction in mycobacterial growth AUC,"[1]; cells treated and staining positive for GzmA, over 18 h",78%
same,GzmA inhibitory activity after CD14 neutralization (MGIA),[2],lost their inhibitory activity
same,GzmA inhibitory activity after TLR2 neutralization (MGIA),[2],does not reverse
same,GzmA inhibitory activity after TLR4 neutralization (MGIA),[2],reversed GzmA-mediated mycobacterial growth inhibition
same,intracellular replication of pre-opsonized mycobacteria (excess protein removed),[2],reduced intracellular replication capacity
same,"mycobacterial growth inhibition, GzmA added prior to or during infection",[2],maximal inhibitory effects
same,"mycobacterial growth inhibition, GzmA added to already infected cells",[2],did not mediate inhibition
same,inhibition of intracellular mycobacterial replication (MGIA),[2]; 72 h,inhibits the intracellular replication of mycobacteria
same,conversion of homodimer by PDIA1,[3],monomeric band at 27 KDa
same,degree of co-localization between GzmA and PDIA1,[4],75%
same,inhibition of intracellular mycobacterial growth in TLR4-deficient iMac cells,[5],incapable of inhibiting intracellular mycobacterial growth
same,stability at 4° C. (retention of substrate activity),[6],continued to retain its activity
same,inhibition of intracellular Mtb (MGIA),"[7]; 200 nM GzmA, Mtb MOI 1, human monocytes",inhibited Mtb
same,"GzmA inhibitory activity after CD14 neutralization, Mtb","[7]; Mtb-infected monocytes, anti-CD14",reversed GzmA-mediated mycobacterial growth inhibition
same,"GzmA inhibitory activity after TLR4 neutralization, Mtb","[7]; Mtb-infected monocytes, anti-TLR4",reversed GzmA-mediated mycobacterial growth inhibition
same,binding to mycobacteria,[8],bound mycobacteria

# Reference: US20240100133A1, “ENZYMATICALLY INACTIVE GRANZYME A AND USES THEREFORE” (Saint Louis University, priority 2022, published 2024)
